According to patent publication US11998609B2, “Self-assembling antiviral prodrugs” (priority 2021, dated 2024):
Residues, ends and D or L forms follow the SMILES beside them. *: point of attachment. X1 = C[C@H](Cn1cnc2c(N)ncnc21)OCP(=O)(O)OCCS*; Palmitoyl = CCCCCCCCCCCCCCCC(=O)*

Columns and labels:
[1] = In vivo pharmacokinetics and biodistribution
Procedure: Samples were dried under a N2 stream, reconstituted in 100 μl of 80% v/v LC-MS grade MeOH/H2O. 10 μl of the sample solution was injected into Waters Acquity/Xevo-G2 UPLC/MS system (Milford, MA) for analysis.
For tissue analysis, an optimized amount of tissue sample was processed using a tissue homogenizer in 5 volumes of 90% v/v LC/MS grade MeCN/H2O. 100 μL Tissue homogenate was mixed with 90 μL of 90% v/v LC/MS grade MeCN/H2O, 10 μL of LC-MS-grade water, and 10 μL 500 ng/ml Emtricitabine solution (as IS). After extraction, 10 μl of the sample solution was injected into Waters Acquity/Xevo-G2 UPLC/MS system (Milford, MA) for analysis.

[2] = cited from earlier work
HBV = type: cell-based, hepatitis B virus; conditions: HepAD38 cells, qPCR of cellular supernatant; FIG. 5 legend; read-out: IC50, reduction of HBV production
Procedure: Anti-HBV efficacy was evaluated on HepAD38 cells, using an adaptation of a procedure described in Ladner, Antimicrob. Agents Chemother. 41: 1715-20, 1997, incorporated herein by reference. HepAD38 cells were plated on collagen coated 96-well flat-bottomed plates at a density of 6×10^4 cells/well and grown for 3 days in the presence of 200 μL of Ham's F-12K (Kaighn's) Medium supplemented with 10% fetal bovine serum (FBS), 1% of an antibiotic solution (penicillin and streptomycin), and 0.3 mg/mL tetracycline at 37° C. in 5% carbon dioxide. On day zero the cells were washed with PBS and treated with tetracycline-free F-12K medium containing TFV, TFV-PA2, or TFV-PA3 (180 μL of medium supplemented with 20 μL of 10× concentration therapeutic solution to give 200 μL of medium at the final therapeutic concentration). Each therapeutic was screened at a minimum of five concentrations in quadruplicate. Water treated cells (180 μL of medium supplemented with 20 μL of H2O) were used as the negative control. On day three the medium was removed and replaced with 200 μL of fresh tetracycline-free medium containing the test compound at the appropriate concentration. […] HBV DNA was quantified by qPCR, using Integrated DNA Technologies PrimeTime Gene Expression Master Mix (Integrated DNA Technologies, Coralville, IA) and HBV TaqMan primer/probe (20×, Assay ID Vi03453405_s1, ThermoFisher Scientific, Pittsburgh, PA). A serial dilution of gBlocks Gene Fragments (Integrated DNA Technologies, Coralville, IA) of known HBV copy number was used as the standard for the absolute quantification of DNA copy number from cycle threshold values. […] Percent HBV production for each therapeutic concentration was determined based on average number of copies of HBV DNA produced by water treated cells and averaged between the three biological repeats of the assay before being plotted against concentration. […]

[3] = Stability of TFV-PAs and redox triggered release of free TFV (with/without DTT); type: in vitro ADME; conditions: 37° C.; for prodrug stability without DTT: 100 μM in 1× PBS, absence of DTT; for TFV released: 100 μM, 10 mM DTT, 1× PBS
Procedure: Stability of the TFV-PAs and redox triggered release of free TFV was assessed by aging TFV-PA solutions in the presence and absence of 10 mM dithiothreitol (DTT). 200 µM solutions of TFV-PA2 and TFV-PA3 solutions were prepared using deionized H2O and allowed to age at RT for 24 hours. A 20 mM solution of DTT was prepared by diluting a stock 1 M DTT solution with 2× phosphate buffered solution (PBS). 500 μL of 2× PBS was added to an equal volume of each TFV-PA solution to give the DTT negative samples with a final TFV-PA concentration of 100 μM in 1× PBS. 500 μL of 20 mM DTT solution was added to an equal volume of each TFV-PA solution to give the DTT positive samples with a final TFV-PA concentration of 100 μM and 10 mM DTT in 1× PBS. Each experimental condition was prepared in triplicate. Solutions were allowed to age at 37° C. and 50 μL samples were collected at predetermined time points (0, 1, 2, 4, 8, 12, 24, 48, and 72 h), flash frozen in liquid nitrogen, and then stored in a −20° C. freezer. 2 μL of hydrochloric acid was added to the DTT positive samples upon collection to quench the reaction. Samples were thawed and immediately analyzed using the Agilent Infinity II RP-HPLC. The relative proportions of remaining TFV-PA were determined using the ratio of the AUC of the TFV-PA peak in the 260 nm chromatograph to that of the 0 hour samples. For select samples, 1 μL of solution was diluted in 900 μL MeOH and 100 μL 0.1% aq. formic acid and subjected to ESI MS to identify the molecules in the sample.

[4] = In vitro prodrug release from TFV-PA hydrogels; type: physicochemical; conditions: day 30, in vitro
Procedure: To study gel release, 5 mM and 10 mM solutions of TFV-PA2 and TFV-PA3 were prepared using deionized water and allowed to age at RT for 48 hours. 45 μL of each solution was aliquoted into three 0.5 mL microcentrifuge tubes and 5 μL of 10× PBS was added to each vial to form a hydrogel with a final concentration of 1× PBS. Gels were allowed to set for 5-10 minutes before 60 μL of 1× PBS was added to the surface as the release media. The vials were then allowed to age at 37° C. Every 2 days, 50 μL of gel release supernatant was collected and replaced with an equal volume of fresh 1× PBS. Samples were frozen and stored at −20° C. for future analysis by RP-HPLC. On select days, 5 μL of release supernatant was collected 24 hours after supernatant exchange and used to prepare a negatively stained transmission electron microscope grid for analysis with the Talos transmission electron microscope. The grid was prepared as described above, except the sample was blotted with 5 μL deionized water (wicked immediately) after the sample was wicked away to remove excess salts from the PBS. Once the release experiment was complete, samples were thawed and 1-2 mg of TCEP was added to 25 μL sample solution and an equal volume of acetonitrile, then vortexed and sonicated at 37° C. for 10 minutes to ensure complete cleavage of the TFV moiety from the TFV-PAs. […]

Row | Structure (SMILES) | drug levels after free drug administration ([1]; after three days, mice) | MRT ([1]; male, Balb/cJ, mouse, in vivo, sc, 75 mg/kg) | log P [2] | IC50 (HBV) | prodrug stability without DTT [3] | TFV released ([3]; after 1 hour) | TFV released ([3]; by 24 hours) | TFV released ([3]; after 4 hours) | initial prodrugs remaining in hydrogel [4]
1 | Nc1ccn([C@@H]2CS[C@H](CO)O2)c(=O)n1 [3TC, 2′,3′-Dideoxy-3′-Thiacytidine] | below detection | 50.4 h |  |  |  |  |  |  | 
2 | C[C@H](Cn1cnc2c(N)ncnc21)OCP(=O)(O)O [TFV, tenofovir, reference compound] |  |  | −2.5 | 1.1 µM |  |  |  |  | 
3 | CCCCCCCCCCCCCCCC(=O)N[C@H](C(=O)N[C@H](C(=O)N[C@@H](CSSCCOP(=O)(O)CO[C@H](C)Cn1cnc2c(N)ncnc21)C(=O)N[C@@H](CCC(=O)O)C(=O)O)C(C)C)C(C)C [TFV-PA2] (Palmitoyl-VVC(X1)E-OH) |  |  |  | 1.5 µM | stable at 37 °C and in 1× PBS for 3 days | more than 90% | all TFV released |  | 
4 | CCCCCCCCCCCCCCCC(=O)N[C@H](C(=O)N[C@H](C(=O)N[C@H](C(=O)N[C@@H](CSSCCOP(=O)(O)CO[C@H](C)Cn1cnc2c(N)ncnc21)C(=O)N[C@@H](CCC(=O)O)C(=O)O)C(C)C)C(C)C)C(C)C [TFV-PA3] (Palmitoyl-VVVC(X1)E-OH) |  |  |  | 0.25 µM | stable at 37 °C and in 1× PBS for 3 days |  | all TFV released | more than 70% | more than 80%
